Measured values reported in patent US20180155451A1 (published 2018).

T1: FcγRIIa H (human, UniProt P12318 34-217)
T1 construct: extracellular domain; also called FcgRIIa H type; 2aH; not shown: His tag at the C terminus
T1 sequence (looked up): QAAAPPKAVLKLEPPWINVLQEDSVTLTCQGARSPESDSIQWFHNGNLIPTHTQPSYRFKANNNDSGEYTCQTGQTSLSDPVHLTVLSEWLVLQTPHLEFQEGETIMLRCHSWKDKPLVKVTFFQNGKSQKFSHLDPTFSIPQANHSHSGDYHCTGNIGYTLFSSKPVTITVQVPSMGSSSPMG

B1: GpH7-B3 variant S324_02A/GpL16-k0 (antibody, human IgG1, kappa)
heavy: not shown
light: DIVMTQSPLSLPVTPGEPASISCQASESLVHSNRNTYLHWYLQKPGQSPQLLIYKVSNRFSGVPDRFSGSGSGTDFTLKISRVEAEDVGVYYCSQNTHVPPTFGQGTKVEIERTVAAPSVFIFPPSDEQLKSGTASVVCLLNNFYPREAKVQWKVDNALQSGNSQESVTEQDSKDSTYSLSSTLTLSKADYEKHKVYACEVTHQGLSSPVTKSFNRGEC
notes: also called Ho Ab S324_02A
B2: GpH7-B3 variant S324_06M/GpL16-k0 (antibody, human IgG1, kappa)
heavy: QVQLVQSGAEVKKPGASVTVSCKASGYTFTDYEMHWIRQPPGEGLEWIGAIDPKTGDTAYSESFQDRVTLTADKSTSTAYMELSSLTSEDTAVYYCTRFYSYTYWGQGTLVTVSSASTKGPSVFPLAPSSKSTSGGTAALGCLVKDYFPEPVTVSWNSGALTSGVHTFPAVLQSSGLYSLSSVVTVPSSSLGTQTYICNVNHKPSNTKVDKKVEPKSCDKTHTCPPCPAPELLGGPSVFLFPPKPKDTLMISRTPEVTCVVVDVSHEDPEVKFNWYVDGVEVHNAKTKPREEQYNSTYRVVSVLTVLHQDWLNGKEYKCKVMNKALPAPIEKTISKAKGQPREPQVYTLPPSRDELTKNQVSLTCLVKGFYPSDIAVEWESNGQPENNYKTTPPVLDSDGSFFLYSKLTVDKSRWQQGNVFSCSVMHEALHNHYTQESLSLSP
light: B1 light
notes: also called Ho Ab S324_06M
B3: GpH7-B3 variant S324_09D/GpL16-k0 (antibody, human IgG1, kappa)
heavy: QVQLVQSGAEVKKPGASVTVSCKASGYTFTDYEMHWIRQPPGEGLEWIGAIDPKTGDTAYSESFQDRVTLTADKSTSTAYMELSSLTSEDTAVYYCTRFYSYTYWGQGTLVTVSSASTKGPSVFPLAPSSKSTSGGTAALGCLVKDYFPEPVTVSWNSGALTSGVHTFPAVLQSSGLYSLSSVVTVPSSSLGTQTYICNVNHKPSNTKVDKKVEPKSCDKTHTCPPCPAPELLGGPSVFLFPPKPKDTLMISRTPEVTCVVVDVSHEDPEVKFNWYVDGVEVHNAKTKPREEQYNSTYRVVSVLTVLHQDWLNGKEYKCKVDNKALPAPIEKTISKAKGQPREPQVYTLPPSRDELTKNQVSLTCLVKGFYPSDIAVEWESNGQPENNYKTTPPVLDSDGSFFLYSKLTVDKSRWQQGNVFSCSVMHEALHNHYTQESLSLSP
light: B1 light
notes: also called Ho Ab S324_09D
B4: GpH7-B3 variant S324_10E/GpL16-k0 (antibody, human IgG1, kappa)
heavy: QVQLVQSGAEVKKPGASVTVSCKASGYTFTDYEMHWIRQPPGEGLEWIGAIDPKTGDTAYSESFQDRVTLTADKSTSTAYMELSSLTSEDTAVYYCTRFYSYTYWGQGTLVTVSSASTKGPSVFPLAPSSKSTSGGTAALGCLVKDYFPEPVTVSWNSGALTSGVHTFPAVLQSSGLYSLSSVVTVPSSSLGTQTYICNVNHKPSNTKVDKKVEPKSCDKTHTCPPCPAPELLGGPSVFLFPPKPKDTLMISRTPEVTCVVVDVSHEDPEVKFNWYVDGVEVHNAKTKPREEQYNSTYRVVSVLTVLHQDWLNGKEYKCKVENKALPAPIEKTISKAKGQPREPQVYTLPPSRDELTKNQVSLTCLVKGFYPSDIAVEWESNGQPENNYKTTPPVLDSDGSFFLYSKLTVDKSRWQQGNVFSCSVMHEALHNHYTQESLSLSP
light: B1 light
notes: also called Ho Ab S324_10E
B5: GpH7-B3 variant S324_20W/GpL16-k0 (antibody, human IgG1, kappa)
heavy: not shown
light: B1 light
notes: also called Ho Ab S324_20W
B6: GpH7-B3 variant S337_09D/GpL16-k0 (antibody, human IgG1, kappa)
heavy: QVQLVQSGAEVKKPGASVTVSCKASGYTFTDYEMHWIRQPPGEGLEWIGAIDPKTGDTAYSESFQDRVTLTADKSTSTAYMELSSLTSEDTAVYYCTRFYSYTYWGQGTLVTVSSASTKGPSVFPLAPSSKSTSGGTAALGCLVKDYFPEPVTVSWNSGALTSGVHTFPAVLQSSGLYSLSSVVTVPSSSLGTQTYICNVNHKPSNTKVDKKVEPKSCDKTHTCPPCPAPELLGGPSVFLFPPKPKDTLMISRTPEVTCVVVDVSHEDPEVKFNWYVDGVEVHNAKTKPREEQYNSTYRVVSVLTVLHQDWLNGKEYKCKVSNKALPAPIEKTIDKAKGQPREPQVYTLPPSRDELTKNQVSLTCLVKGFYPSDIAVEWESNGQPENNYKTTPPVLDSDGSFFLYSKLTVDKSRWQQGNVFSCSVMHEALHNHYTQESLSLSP
light: B1 light
notes: also called Ho Ab S337_09D
B7: GpH7-B3 variant S337_10E/GpL16-k0 (antibody, human IgG1, kappa)
heavy: not shown
light: B1 light
notes: also called Ho Ab S337_10E
B8: GpH7-B3 variant S337_14T/GpL16-k0 (antibody, human IgG1, kappa)
heavy: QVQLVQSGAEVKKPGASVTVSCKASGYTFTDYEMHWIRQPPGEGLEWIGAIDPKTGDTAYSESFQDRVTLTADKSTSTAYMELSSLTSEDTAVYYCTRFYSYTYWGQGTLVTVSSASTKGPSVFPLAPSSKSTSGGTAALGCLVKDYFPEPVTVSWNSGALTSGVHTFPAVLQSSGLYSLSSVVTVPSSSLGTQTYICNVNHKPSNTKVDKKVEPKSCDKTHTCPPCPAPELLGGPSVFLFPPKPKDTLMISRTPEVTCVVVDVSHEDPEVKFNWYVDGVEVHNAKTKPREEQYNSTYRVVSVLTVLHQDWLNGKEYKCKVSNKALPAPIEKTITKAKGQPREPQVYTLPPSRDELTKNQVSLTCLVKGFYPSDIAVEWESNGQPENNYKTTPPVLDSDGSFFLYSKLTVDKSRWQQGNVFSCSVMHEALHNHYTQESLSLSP
light: B1 light
notes: also called Ho Ab S337_14T
B9: GpH7-B3 variant S337_16H/GpL16-k0 (antibody, human IgG1, kappa)
heavy: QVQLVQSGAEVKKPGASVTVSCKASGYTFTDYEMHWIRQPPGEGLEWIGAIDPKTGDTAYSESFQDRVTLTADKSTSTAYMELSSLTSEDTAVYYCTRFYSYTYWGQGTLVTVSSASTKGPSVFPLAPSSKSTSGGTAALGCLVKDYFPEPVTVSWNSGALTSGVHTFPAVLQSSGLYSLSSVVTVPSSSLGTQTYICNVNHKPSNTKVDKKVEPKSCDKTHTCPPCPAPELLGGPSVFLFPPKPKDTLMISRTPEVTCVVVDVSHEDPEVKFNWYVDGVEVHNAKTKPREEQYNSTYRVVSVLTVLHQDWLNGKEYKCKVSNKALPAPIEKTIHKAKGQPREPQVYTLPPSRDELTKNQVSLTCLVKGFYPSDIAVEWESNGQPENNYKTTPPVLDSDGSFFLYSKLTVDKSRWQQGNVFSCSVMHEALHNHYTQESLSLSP
light: B1 light
notes: also called Ho Ab S337_16H
B10: GpH7-B3 variant T335_01G/GpL16-k0 (antibody, human IgG1, kappa)
heavy: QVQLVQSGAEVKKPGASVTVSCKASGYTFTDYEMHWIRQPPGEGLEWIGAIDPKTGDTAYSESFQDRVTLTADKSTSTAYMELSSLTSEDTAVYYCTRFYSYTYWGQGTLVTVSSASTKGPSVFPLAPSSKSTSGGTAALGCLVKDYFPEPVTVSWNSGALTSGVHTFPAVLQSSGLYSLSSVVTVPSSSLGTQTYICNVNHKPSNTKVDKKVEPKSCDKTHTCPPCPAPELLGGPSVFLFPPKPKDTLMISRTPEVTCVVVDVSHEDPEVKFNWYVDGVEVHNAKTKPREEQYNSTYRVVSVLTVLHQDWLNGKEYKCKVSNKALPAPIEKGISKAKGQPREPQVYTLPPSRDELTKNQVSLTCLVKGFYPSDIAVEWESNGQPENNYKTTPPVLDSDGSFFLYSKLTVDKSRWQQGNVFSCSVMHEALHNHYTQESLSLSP
light: B1 light
notes: also called Ho Ab T335_01G
B11: GpH7-B3 variant T335_07I/GpL16-k0 (antibody, human IgG1, kappa)
heavy: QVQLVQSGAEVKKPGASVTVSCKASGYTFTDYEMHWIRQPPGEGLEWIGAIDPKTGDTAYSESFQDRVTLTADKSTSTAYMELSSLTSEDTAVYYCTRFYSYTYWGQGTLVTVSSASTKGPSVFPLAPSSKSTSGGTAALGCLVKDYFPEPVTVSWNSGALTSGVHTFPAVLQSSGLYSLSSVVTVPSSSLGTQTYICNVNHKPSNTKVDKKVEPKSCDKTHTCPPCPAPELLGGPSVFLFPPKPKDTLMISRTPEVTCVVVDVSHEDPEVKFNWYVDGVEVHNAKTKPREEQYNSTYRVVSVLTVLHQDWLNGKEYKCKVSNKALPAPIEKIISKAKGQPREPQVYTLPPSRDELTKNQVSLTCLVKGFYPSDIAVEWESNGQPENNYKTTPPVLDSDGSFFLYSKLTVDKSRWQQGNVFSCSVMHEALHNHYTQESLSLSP
light: B1 light
notes: also called Ho Ab T335_07I
B12: GpH7-B3 variant T335_10E/GpL16-k0 (antibody, human IgG1, kappa)
heavy: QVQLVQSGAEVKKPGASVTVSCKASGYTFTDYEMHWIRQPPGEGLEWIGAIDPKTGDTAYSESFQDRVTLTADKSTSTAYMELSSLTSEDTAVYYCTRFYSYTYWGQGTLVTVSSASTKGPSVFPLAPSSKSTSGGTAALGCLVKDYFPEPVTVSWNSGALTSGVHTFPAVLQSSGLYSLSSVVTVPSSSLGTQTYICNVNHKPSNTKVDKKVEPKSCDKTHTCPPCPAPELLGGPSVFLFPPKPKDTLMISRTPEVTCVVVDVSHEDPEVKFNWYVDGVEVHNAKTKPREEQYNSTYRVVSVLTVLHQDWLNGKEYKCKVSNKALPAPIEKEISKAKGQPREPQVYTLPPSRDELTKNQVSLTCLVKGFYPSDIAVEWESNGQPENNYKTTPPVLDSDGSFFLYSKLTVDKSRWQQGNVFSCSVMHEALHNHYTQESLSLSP
light: B1 light
notes: also called Ho Ab T335_10E
B13: GpH7-B3 variant T335_13S/GpL16-k0 (antibody, human IgG1, kappa)
heavy: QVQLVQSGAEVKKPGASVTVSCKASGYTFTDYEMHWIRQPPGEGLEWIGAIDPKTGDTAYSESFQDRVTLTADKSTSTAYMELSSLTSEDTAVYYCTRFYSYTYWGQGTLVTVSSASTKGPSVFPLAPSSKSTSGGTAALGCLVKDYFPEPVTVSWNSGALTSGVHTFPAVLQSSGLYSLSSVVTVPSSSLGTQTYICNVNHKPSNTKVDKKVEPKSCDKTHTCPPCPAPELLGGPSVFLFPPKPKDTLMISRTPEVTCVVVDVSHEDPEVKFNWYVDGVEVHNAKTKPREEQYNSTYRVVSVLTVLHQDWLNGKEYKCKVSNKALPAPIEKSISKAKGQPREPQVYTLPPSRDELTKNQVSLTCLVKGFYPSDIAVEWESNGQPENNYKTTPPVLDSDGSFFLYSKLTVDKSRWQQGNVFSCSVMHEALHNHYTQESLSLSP
light: B1 light
notes: also called Ho Ab T335_13S
B14: GpH7-B3 variant T335_15Y/GpL16-k0 (antibody, human IgG1, kappa)
heavy: not shown
light: B1 light
notes: also called Ho Ab T335_15Y
B15: GpH7-B3 variant T335_16H/GpL16-k0 (antibody, human IgG1, kappa)
heavy: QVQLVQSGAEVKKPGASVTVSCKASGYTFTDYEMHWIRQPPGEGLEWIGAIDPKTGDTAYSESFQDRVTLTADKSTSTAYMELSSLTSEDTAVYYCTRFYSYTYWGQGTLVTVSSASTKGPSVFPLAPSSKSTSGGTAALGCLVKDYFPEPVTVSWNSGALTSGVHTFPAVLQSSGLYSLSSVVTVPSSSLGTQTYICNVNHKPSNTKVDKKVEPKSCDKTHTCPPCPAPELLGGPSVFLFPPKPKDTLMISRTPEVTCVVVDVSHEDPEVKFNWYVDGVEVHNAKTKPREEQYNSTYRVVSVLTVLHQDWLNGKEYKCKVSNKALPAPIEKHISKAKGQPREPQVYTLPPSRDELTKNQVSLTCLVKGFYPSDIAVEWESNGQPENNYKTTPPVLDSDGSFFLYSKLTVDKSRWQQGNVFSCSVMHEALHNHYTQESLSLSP
light: B1 light
notes: also called Ho Ab T335_16H
B16: GpH7-B3 variant T335_19Q/GpL16-k0 (antibody, human IgG1, kappa)
heavy: not shown
light: B1 light
notes: also called Ho Ab T335_19Q
B17: GpH7-A5/GpH7-B3 variant I332_02A/GpL16-k0 (antibody, human IgG1, kappa)
heavy 1: not shown
heavy 2: not shown
light: B1 light
notes: also called He Ab I332_02A
B18: GpH7-A5/GpH7-B3 variant A330_12R/GpL16-k0 (antibody, human IgG1, kappa)
heavy 1: not shown
heavy 2: not shown
light: B1 light
notes: also called He Ab A330_12R
B19: GpH7-A5/GpH7-B3 variant G236_03V/GpL16-k0 (antibody, human IgG1, kappa)
heavy 1: not shown
heavy 2: not shown
light: B1 light
notes: also called He Ab G236_03V
B20: GpH7-A5/GpH7-B3 variant G236_07I/GpL16-k0 (antibody, human IgG1, kappa)
heavy 1: not shown
heavy 2: not shown
light: B1 light
notes: also called He Ab G236_07I
B21: GpH7-A5/GpH7-B3 variant G236_10E/GpL16-k0 (antibody, human IgG1, kappa)
heavy 1: not shown
heavy 2: not shown
light: B1 light
notes: also called He Ab G236_10E
B22: GpH7-A5/GpH7-B3 variant H268_09D/GpL16-k0 (antibody, human IgG1, kappa)
heavy 1: not shown
heavy 2: not shown
light: B1 light
notes: also called He Ab H268_09D
B23: GpH7-A5/GpH7-B3 variant H268_10E/GpL16-k0 (antibody, human IgG1, kappa)
heavy 1: not shown
heavy 2: not shown
light: B1 light
notes: also called He Ab H268_10E
B24: GpH7-A5/GpH7-B3 variant H268_13S/GpL16-k0 (antibody, human IgG1, kappa)
heavy 1: not shown
heavy 2: not shown
light: B1 light
notes: also called He Ab H268_13S
B25: GpH7-A5/GpH7-B3 variant H268_18N/GpL16-k0 (antibody, human IgG1, kappa)
heavy 1: not shown
heavy 2: not shown
light: B1 light
notes: also called He Ab H268_18N
B26: GpH7-A5/GpH7-B3 variant I332_03V/GpL16-k0 (antibody, human IgG1, kappa)
heavy 1: not shown
heavy 2: not shown
light: B1 light
notes: also called He Ab I332_03V
B27: GpH7-A5/GpH7-B3 variant I332_04F/GpL16-k0 (antibody, human IgG1, kappa)
heavy 1: not shown
heavy 2: not shown
light: B1 light
notes: also called He Ab I332_04F
B28: GpH7-A5/GpH7-B3 variant I332_06M/GpL16-k0 (antibody, human IgG1, kappa)
heavy 1: not shown
heavy 2: not shown
light: B1 light
notes: also called He Ab I332_06M
B29: GpH7-A5/GpH7-B3 variant I332_09D/GpL16-k0 (antibody, human IgG1, kappa)
heavy 1: not shown
heavy 2: not shown
light: B1 light
notes: also called He Ab I332_09D

The binders below were run against T1, FcγRIIa H (assay: SPR Biacore, relative binding).
B1 was tested, and the Ho/Con_2aH was 102 % of GpH7-B3/GpL16-k0 (=100). B2 was tested, and the Ho/Con_2aH was 123 % of GpH7-B3/GpL16-k0 (=100). B3 was tested, and the Ho/Con_2aH was 113 % of GpH7-B3/GpL16-k0 (=100). With B4 the Ho/Con_2aH was 104 % of GpH7-B3/GpL16-k0 (=100). For B5, the Ho/Con_2aH was 108 % of GpH7-B3/GpL16-k0 (=100). With B6 the Ho/Con_2aH was 107 % of GpH7-B3/GpL16-k0 (=100). For B7, the Ho/Con_2aH was 101 % of GpH7-B3/GpL16-k0 (=100). B8 was tested, and the Ho/Con_2aH was 105 % of GpH7-B3/GpL16-k0 (=100). With B9 the Ho/Con_2aH was 102 % of GpH7-B3/GpL16-k0 (=100). With B10 the Ho/Con_2aH was 101 % of GpH7-B3/GpL16-k0 (=100). For B11, the Ho/Con_2aH was 105 % of GpH7-B3/GpL16-k0 (=100). With B12 the Ho/Con_2aH was 105 % of GpH7-B3/GpL16-k0 (=100). For B13, the Ho/Con_2aH was 101 % of GpH7-B3/GpL16-k0 (=100). For B14, the Ho/Con_2aH was 102 % of GpH7-B3/GpL16-k0 (=100). With B15 the Ho/Con_2aH was 100 % of GpH7-B3/GpL16-k0 (=100). With B16 the Ho/Con_2aH was 103 % of GpH7-B3/GpL16-k0 (=100). For B17, the He/Con_2aH was 111 % of GpH7-A5/GpH7-B3/GpL16-k0 (=100). With B18 the He/Con_2aH was 108 % of GpH7-A5/GpH7-B3/GpL16-k0 (=100). In the case of B19, the He/Con_2aH is reported as 119 % of GpH7-A5/GpH7-B3/GpL16-k0 (=100). In the case of B20, the He/Con_2aH is reported as 115 % of GpH7-A5/GpH7-B3/GpL16-k0 (=100). For B21, the He/Con_2aH was 111 % of GpH7-A5/GpH7-B3/GpL16-k0 (=100). For B22, the He/Con_2aH was 133 % of GpH7-A5/GpH7-B3/GpL16-k0 (=100). For B23, the He/Con_2aH was 124 % of GpH7-A5/GpH7-B3/GpL16-k0 (=100). In the case of B24, the He/Con_2aH is reported as 112 % of GpH7-A5/GpH7-B3/GpL16-k0 (=100). With B25 the He/Con_2aH was 112 % of GpH7-A5/GpH7-B3/GpL16-k0 (=100). In the case of B26, the He/Con_2aH is reported as 105 % of GpH7-A5/GpH7-B3/GpL16-k0 (=100). B27 was tested, and the He/Con_2aH was 104 % of GpH7-A5/GpH7-B3/GpL16-k0 (=100). In the case of B28, the He/Con_2aH is reported as 110 % of GpH7-A5/GpH7-B3/GpL16-k0 (=100). B29 was tested, and the He/Con_2aH was 118 % of GpH7-A5/GpH7-B3/GpL16-k0 (=100).
